Experimental data: paper PMC9304148

Columns and labels:
[1] = biological target: CarHCfe (Cystobacter ferrugineus CarH), purified (Cystobacter ferrugineus); assay: SEC; analytical size exclusion, Superdex200 HR 10/30; 100 ul of 50-100 uM pure apoprotein alone, in the dark; dimer by apparent Mr
[2] = biological target: CarHCfe (Cystobacter ferrugineus CarH), purified (Cystobacter ferrugineus); assay: SEC; analytical size exclusion, Superdex200 HR 10/30; 100 ul of 50-100 uM protein after 15-min incubation with five-fold molar excess of AdoCbl, in the dark; dimer by apparent Mr
[3] = biological target: CarHCfu (Cystobacter fuscus CarH), purified (Cystobacter fuscus); assay: SEC; analytical size exclusion, Superdex200 HR 10/30; 100 ul of 50-100 uM pure apoprotein alone, in the dark; dimer by apparent Mr
[4] = biological target: CarHCfu (Cystobacter fuscus CarH), purified (Cystobacter fuscus); assay: SEC; analytical size exclusion, Superdex200 HR 10/30; 100 ul of 50-100 uM protein after 15-min incubation with five-fold molar excess of AdoCbl, in the dark; dimer by apparent Mr
[5] = test system: CarHCfu (Cystobacter fuscus DSM 2262 (strain as in the genome table)); assay: EMSA; conditions: EMSA: 0.1 M KCl, 10 mM MgCl2, 25 mM Tris-HCl pH 8, 1 mM DTT, 10% glycerol, 200 ng/ul BSA, 1 ug salmon sperm DNA, 1.2 nM probe, AdoCbl 5-fold over protein, 37 °C

Question: Which stoichiometry N [1] does the source give for “CarHCfe (Cystobacter ferrugineus CarH), purified (natural protein)” here?
Answer: The stoichiometry N was 2.

Question: And the stoichiometry N [2]?
Answer: Its stoichiometry N is 2.

Question: How did the stoichiometry N [3] turn out when “CarHCfu (Cystobacter fuscus CarH), purified (natural protein)” was run?
Answer: The stoichiometry N was 2.

Question: What about the stoichiometry N [4] of the same substance?
Answer: Its stoichiometry N is 2.

Question: With Pcrt Cfu 170 bp as the substance, how does the Kd [5] read?
Answer: Its Kd is 34.7 nM.
